Reference: doi:10.1101/2021.07.20.453048

Biological target: Taxol-stabilized microtubules polymerised from purified bovine brain tubulin (bovine) (UniProt Q6B856)
Assay: co-sedimentation

B1: His-MBP-ENKD1 (maltose-binding protein fusion of full-length human Enkurin domain containing 1) (natural protein)
chain: MCEGPSRISGPIPPDPTLCPDNYRRPTSAQGRLEGNALKLDLLTSDRALDTTAPRGPCIGPGAGEILERGQRGVGDVLLQLEGISLGPGASLKRKDPKDHEKENLRRIREIQKRFREQERSREQGQPRPLKALWRSPKYDKVESRVKAQLQEPGPASGTESAHFLRAHSRCGPGLPPPHVSSPQPTPPGPEAKEPGLGVDFIRHNARAAKRAPRRHSCSLQVLAQVLEQQRQAQEHYNATQKGHVPHYLLERRDLWRREAEARKQSQPDPAMPPGHTRMPENQRLETLTKLLQSQSQLLRELVLLPAGADSLRAQSHRAELDRKLVQVEEAIKIFSRPKVFVKMDD
Question: How did the Kd turn out when B1 was run?
Answer: Its Kd is 160 nM.
